Data published in patent publication US20060193821, “Aptamers to the human IL-12 cytokine family and their use as autoimmune disease therapeutics” (published 2006).

B1: ARC1634 (ssRNA)
RNA: GGAGCGCACUCAGCCACCUUGGGCUUAAUACCUAUCGGAUGUGCGCCUAGCACGGAAUUUCGACCUCUCUGCUAGC
modifications: 2'-F C,U
B2: ARC1632 (ssRNA)
RNA: GGAGCGCACUCAGCCACCGGCUUAAUAUCCAAUAGGAACGUUCGCUCUGAGCAGGCGUUUCGACCUCUCUGCUAGC
modifications: 2'-F C,U
B3: ARC1628 (ssRNA)
RNA: GGAGCGCACUCAGCCACAGGUGGCUUAAUACUGUAAAGACGUGCGCGCAGAGGGAUUUUCGACCUCUCUGCUAGC
modifications: 2'-F C,U
B4: ARC1633 (ssRNA)
RNA: GGAGCGCACUCAGCCACAGCUCGGUGGCUUAAUAUCUAUGUGAACGUGCGCAACAGCUUUCGACCUCUCUGCUAGC
modifications: 2'-F C,U
B5: dRmY clone SEQ 95 (mixed)
RNA: GGGAGAGGAGAGAACGUUCUACGGGCUACGGGGAUGGAGGGUGGGUCCCAGACGCUGUCGAUCGAUCGAUCGAUG
modifications: 2'-deoxy A and G, 2'-OMe C and U (dRmY)
B6: dRmY clone SEQ 93 (mixed)
RNA: GGGAGAGGAGAGAACGUUCUACGUAACGGGGUGGGAGGGGCGAACAACUUGACGCUGUCGAUCGAUCGAUCGAUG
modifications: 2'-deoxy A and G, 2'-OMe C and U (dRmY)
B7: dRmY clone SEQ 96 (mixed)
RNA: GGGAGAGGAGAGAACGUUCUACACGGGGUGGGAGGGGCGAGUCGCAUGGAUGCGCUGUCGAUCGAUCGAUCGAUG
modifications: 2'-deoxy A and G, 2'-OMe C and U (dRmY)
B8: ARC1634 (ssRNA)
RNA: B1 RNA
modifications: 2'-F all C and U (rRfY)
B9: ARC1630 (ssRNA)
RNA: GGAGCGCACUCAGCCACUCUACUCGAUAUAGUUUAUCGAGCCGGUGGUAGAUUAUGAUUUCGACCUCUCUGCUAGC
modifications: 2'-F all C and U (rRfY)
B10: ARC1631 (ssRNA)
RNA: GGAGCGCACUCAGCCACGCCUACAAUUCACUGUGAUAUAUCGAAUUAUAGCCCUGGUUUCGACCUCUCUGCUAGC
modifications: 2'-F all C and U (rRfY)
B11: ARC1632 (ssRNA)
RNA: B2 RNA
modifications: 2'-F all C and U (rRfY)
B12: ARC1628 (ssRNA)
RNA: B3 RNA
modifications: 2'-F all C and U (rRfY)
B13: ARC1633 (ssRNA)
RNA: B4 RNA
modifications: 2'-F all C and U (rRfY)
B14: ARC1629 (ssRNA)
RNA: GGAGCGCACUCAGCCACCGUAAUUCACAAGGUCCCUGAGUGCAGGGUUGUAUGUUUGUUUCGACCUCUCUGCUAGC
modifications: 2'-F all C and U (rRfY)
B15: ARC646 (mixed)
RNA: GGGAGAGGAGAGAACGUUCUACACAUGGCUCGAAAGAGGGGCGUGAGGGUGGGGUCGAUCGAUCGAUCAUCGAUG
modifications: deoxy A,G; 2'-OMe C,U
B16: ARC635 (mixed)
RNA: GGGAGAGGAGAGAACGUUCUACAGGCUCAAAAGAGGGGGAUGUGGGAGGGGGUCGAUCGAUCGAUCAUCGAUG
modifications: deoxy A,G; 2'-OMe C,U
B17: ARC643 (mixed)
RNA: GGGAGAGGAGAGAACGUUCUACAGGCCGAUGAGGGGGAGCAGUGGGUGGGGGGUCGAUCGAUCGAUCAUCGAUG
modifications: deoxy A,G; 2'-OMe C,U
B18: ARC628 (mixed)
RNA: GGGAGAGGAGAGAACGUUCUACAGGCAAGGCAAUUGGGGAGCGUGGGUGGGGGGGUCGAUCGAUCGAUCAUCGAUG
modifications: deoxy A,G; 2'-OMe C,U

Molecular target: T1, IL-23 (mouse, p19/p40 heterodimer) (Mus musculus, UniProt Q9EQ14;P43432 SEQ:22-196,SEQ:23-335)
T1 sequence 1: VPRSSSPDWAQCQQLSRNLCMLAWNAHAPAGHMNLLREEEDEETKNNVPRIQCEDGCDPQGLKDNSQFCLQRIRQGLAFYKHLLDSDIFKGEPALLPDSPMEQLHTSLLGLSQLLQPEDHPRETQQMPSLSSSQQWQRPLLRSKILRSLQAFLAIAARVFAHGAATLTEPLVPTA
T1 sequence 2: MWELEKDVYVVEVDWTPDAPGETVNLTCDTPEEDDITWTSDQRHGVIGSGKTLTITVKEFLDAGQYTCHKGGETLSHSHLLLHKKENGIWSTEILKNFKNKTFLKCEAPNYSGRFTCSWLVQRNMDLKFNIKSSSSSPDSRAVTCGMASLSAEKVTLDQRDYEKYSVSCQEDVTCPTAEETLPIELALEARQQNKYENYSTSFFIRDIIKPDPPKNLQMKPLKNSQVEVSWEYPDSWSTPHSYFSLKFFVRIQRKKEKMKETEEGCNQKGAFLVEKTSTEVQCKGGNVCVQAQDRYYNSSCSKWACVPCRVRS
Assay: cell_activity; TransAM STAT3
Details: tags: isolated in-house
Method: In summary, the cell-based assay was conducted by isolating the peripheral blood mononuclear cells (PBMCs) from whole blood using a Histopaque gradient (Sigma, St. Louis, Mo.). The PBMCs were cultured for 3 to 5 days at 37° C./5% CO₂ in Peripheral Blood Medium (Sigma) which contains PHA, supplemented with IL-2 (100 units/mL) (R&D Systems, Minneapolis, Minn.), to generate PHA Blasts. To test IL-23 aptamers, the PHA Blasts were washed twice with 1×PBS, then serum starved for four hours in RPMI, 0.20% FBS. After serum starvation, approximately 2 million cells were aliquotted into appropriately labeled eppendorf tubes. hIL-23 at a final constant concentration of 3 ng/mL (R&D Systems, Minneapolis, Minn.) was combined with a dilution series of various IL-23 aptamers as described in Example 1, and the cytokine/aptamer mixture was added to the aliquotted cells in a final volume of 100 μl and incubated at 37° C. for 10-12 minutes. The incubation reaction was stopped by adding 1 mL of ice-cold PBS with 1.5 mM Na₃VO₄. Cell lysates were made using the lysis buffer provided by the TransAM™ STAT 3 assay following the manufacturer's instructions. FIG. 20 depicts a flow summary of the protocol used for the cell based assay.
The protocol used was identical to that previously described except mouse IL-23 was used to induce STAT 3 activation in PHA Blasts at a concentration of 30 ng/mL, instead of using human IL-23 at a concentration of 3 ng/mL.

Row | Binder | IC50
1 | B1 | 9 nM
2 | GGGCACUCAGCCACCUUGGGCUUAAUACCUAUCGGAUGUGCCC (ssRNA, 2'-F C,U) [ARC1634 minimer] | 26 nM
3 | GGGCACUCAGCCACAGGUGGCUUAAUACUGUAAAGACGUGCCC (ssRNA, 2'-F C,U) [ARC1739 (ARC1628 minimer)] | 18 nM
4 | B2 | 18 nM
5 | GGGCACUCAGCCACAGCUCGGUGGCUUAAUAUCUAUGUGAACGUGCCC (ssRNA, 2'-F C,U) [ARC1633 minimer] | 7 nM
6 | B3 | 37 nM
7 | B4 | 31 nM

Molecular target: T2, IL-23 (human, p19/p40 heterodimer) (Homo sapiens, UniProt Q9NPF7;P29460 SEQ:20-189,SEQ:23-328)
T2 sequence (Q9NPF7 20-189, chain 1 of 2): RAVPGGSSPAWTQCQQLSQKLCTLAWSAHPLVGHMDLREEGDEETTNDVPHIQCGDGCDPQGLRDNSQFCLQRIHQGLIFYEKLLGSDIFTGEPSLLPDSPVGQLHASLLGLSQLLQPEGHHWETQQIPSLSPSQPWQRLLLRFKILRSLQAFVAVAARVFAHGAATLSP
T2 sequence (P29460 23-328, chain 2 of 2): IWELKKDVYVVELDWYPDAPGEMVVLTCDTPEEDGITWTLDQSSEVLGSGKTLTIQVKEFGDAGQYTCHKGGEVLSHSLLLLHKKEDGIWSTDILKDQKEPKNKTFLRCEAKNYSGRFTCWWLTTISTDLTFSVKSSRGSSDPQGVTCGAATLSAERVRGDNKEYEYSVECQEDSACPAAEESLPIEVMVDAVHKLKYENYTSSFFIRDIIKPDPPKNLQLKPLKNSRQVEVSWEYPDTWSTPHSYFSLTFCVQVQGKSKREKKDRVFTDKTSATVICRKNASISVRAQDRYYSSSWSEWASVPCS
Assay: filter; 1X PBS, tRNA, ssDNA, BSA, 30 min RT
Details: tags: R&D Systems, carrier free; label: 32P

Row | Binder | Kd
8 | B5 | 433 nM
9 | B6 | 186 nM
10 | B7 | 210 nM

Molecular target: T3, IL-12 (mouse, p35/p40 heterodimer) (Mus musculus, UniProt P43431;P43432 SEQ:23-215,SEQ:23-335)
T3 sequence 1: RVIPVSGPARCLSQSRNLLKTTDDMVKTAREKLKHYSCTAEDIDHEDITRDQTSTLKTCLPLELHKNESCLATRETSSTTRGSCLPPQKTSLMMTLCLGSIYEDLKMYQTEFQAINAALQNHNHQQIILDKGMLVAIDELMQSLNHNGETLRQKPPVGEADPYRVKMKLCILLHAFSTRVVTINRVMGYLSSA
T3 sequence 2: T1 sequence 2
Assay: filter; 1X PBS, 0.1 mg/mL BSA, 30 min RT
Details: label: 32P
Method: (§1) rRfY mIL-23 Protein Binding Analysis: Dot blot binding assays were performed throughout the selections to monitor the protein binding affinity of the pools as previously described. When a significant level of binding of RNA in the presence of mIL-23 was observed, the pools were cloned using a TOPO TA cloning kit (Invitrogen, Carlsbad, Calif.) according to the manufacturer's instructions. For both mIL-23 selections, the Round 7 pool templates were cloned, and 16 individual clones from each selection were assayed using an 8-point mIL-23 titration. Seven of the 32 total clones screened had specific binding curves and are listed below in Table 16. […] Clones with high affinity to mIL-23 were subsequently screened for protein binding against mouse IL-12, human IL-23 and human IL-12 in the same manner.

Row | Binder | Kd
11 | B8 | 29 nM
12 | B9 | 18 nM
13 | B10 | 72 nM
14 | B11 | 16 nM
15 | B12 | 6 nM
16 | B13 | 44 nM
17 | B14 | 103 nM

Molecular target: T4, IL-12 (human, p35/p40 heterodimer) (Homo sapiens, UniProt P29459;P29460 SEQ:57-253,SEQ:23-328)
T4 sequence (P29459 23-219, chain 1 of 2): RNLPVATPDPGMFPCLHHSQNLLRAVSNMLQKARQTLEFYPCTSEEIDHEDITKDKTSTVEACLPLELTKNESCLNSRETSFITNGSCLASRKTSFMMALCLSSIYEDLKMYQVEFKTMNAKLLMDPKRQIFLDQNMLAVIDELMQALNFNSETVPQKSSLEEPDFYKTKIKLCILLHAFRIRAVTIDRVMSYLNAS
T4 sequence (P29460 23-328, chain 2 of 2): as the sequence (P29460 23-328, chain 2 of 2) above
Assay: filter; 1X PBS, 0.1 mg/mL BSA, 30 min RT
Details: label: 32P
Method: as §1

Row | Binder | Kd
18 | B8 | 63 nM
19 | B9 | 239 nM
20 | B10 | 69 nM
21 | B11 | 186 nM
22 | B12 | 161 nM
23 | B13 | 195 nM
24 | B14 | 75 nM

Molecular target: T2, IL-23 (human, p19/p40 heterodimer)
Assay: filter; 1X PBS, 0.1 mg/mL BSA, 30 min RT
Details: tags: R&D Systems, carrier free; label: 32P
Method: as §1

Row | Binder | Kd
25 | B8 | 39 nM
26 | B9 | 65 nM
27 | B10 | 39 nM
28 | B11 | 91 nM
29 | B12 | 52 nM
30 | B13 | 79 nM
31 | B14 | 31 nM

Molecular target: T1, IL-23 (mouse, p19/p40 heterodimer)
Assay: filter; 1X PBS, 0.1 mg/mL BSA, 30 min RT
Details: tags: isolated in-house; label: 32P
Method: as §1

Row | Binder | Kd
32 | B8 | 3 nM
33 | B9 | 14 nM
34 | B10 | 33 nM
35 | B11 | 13 nM
36 | B12 | 2 nM
37 | B13 | 17 nM
38 | B14 | 34 nM

Molecular target: T4, IL-12 (human, p35/p40 heterodimer)
Assay: filter; PBS, tRNA, ssDNA, BSA
Details: not given
Method: (§2) The clones were 5′end labeled with γ-³²P ATP, and were assayed for both IL-23 and IL-12 binding in a 3-point dot blot screen (0 nM, 20 nM, and 100 nM h-IL-23; 0 nM, 20 nM, and 100 nM h-IL-12) (data not shown). […] KD values were determined by fitting an equation describing a 1:1 RNA:protein complex to the resulting data (fraction aptamer bound=amplitude*([IL-23]/(KD+[IL-23]))+background binding) (KaleidaGraph v. 3.51, Synergy Software). Results of protein binding characterization for the higher affinity clones are tabulated in Table 13, and corresponding clone sequences are listed in Table 12.

Row | Binder | Kd
39 | B15 | 383 nM
40 | B16 | 431 nM
41 | B17 | 309 nM
42 | B18 | 146 nM

Molecular target: T2, IL-23 (human, p19/p40 heterodimer)
Assay: filter; PBS, tRNA, ssDNA, BSA
Details: tags: R&D Systems, carrier free
Method: as §2

Row | Binder | Kd
43 | B15 | 208 nM
44 | B16 | 172 nM
45 | B17 | 71.6 nM
46 | B18 | 57.8 nM
